Laboratory results from patent US20210172932A1.

Key:
[1] = target: human FcRn (FCGRT and beta2-microglobulin) on MDCK-hFcRn cells, clone 305-6 (human) (UniProt P55899); test: cell-based or functional assay
[2] = target: human FcRn (immobilized on nickel-nitrilotriacetic acid-coated biosensors) (human) (UniProt P55899); test: BLI, pH 6.0; range of the panel, lower end tied to Nivolumab by Table 1
[3] = target: human FcRn (immobilized on nickel-nitrilotriacetic acid-coated biosensors) (human) (UniProt P55899); test: BLI (Octet RED), FcRn on Ni-NTA biosensor, pH 6.0
[4] = target: human FcRn (FCGRT and beta2-microglobulin) on MDCK-hFcRn cells, clone 305-6 (human) (UniProt P55899); test: flow cytometry on MDCK-hFcRn cells
[5] = target: human FcRn (immobilized on nickel-nitrilotriacetic acid-coated biosensors) (human) (UniProt P55899); test: FcRn binding at pH 6.0 (BLI)
[6] = target: human FcRn (FCGRT and beta2-microglobulin) on MDCK-hFcRn cells, clone 305-6 (human) (UniProt P55899); test: flow cytometry, 100 µg/mL on MDCK-hFcRn cells, physiological pH, geometric MFI (No mAb: 94)

Substance | Transcytosis [1] | Kd [3] | also measured
Alirocumab (antibody) | 9.9 ng/mL |  | 
Pertuzumab (antibody) | 6.8 ng/mL | 570 nM | Transcytosis in MDCK-hFcRn cells [1]: 6.8 ng/mL
2H7-DG (antibody) |  |  | Transcytosis (MDCK-hFcRN) [1]: 4.3 ng/mL; Binding to MDCK-hFcRN, MFI [4]: 160 MFI; Kd [5]: 440 nM
Atezolizumab (antibody) | 3 ng/mL | 650 nM | 
Ocrelizumab (antibody) | 4.8 ng/mL | 450 nM | Transcytosis (MDCK-hFcRN) [1]: 4.8 ng/mL; Transcytosis in MDCK-hFcRn cells [1]: 4.8 ng/mL; Binding to MDCK-hFcRN, MFI [4]: 140 MFI; Binding to MDCK-FcRn cells, MFI [6]: 101 MFI; Kd [5]: 450 nM
Efalizumab (antibody) | 8.3 ng/mL |  | 
Natalizumab (antibody) | 4.9 ng/mL | 280 nM | 
Rituximab (antibody) | 5.6 ng/mL | 460 nM | 
Tocilizumab (antibody) | 5.5 ng/mL |  | 
Basiliximab (antibody) | 14.9 ng/mL | 540 nM | Transcytosis in MDCK-hFcRn cells [1]: 14.8 ng/mL; Binding to MDCK-FcRn cells, MFI [6]: 203 MFI
Obinutuzumab (antibody) | 4.5 ng/mL |  | 
Ixekizumab (antibody) | 5.1 ng/mL |  | 
Durvalumab (antibody) | 6 ng/mL | 700 nM | 
Adalimumab (antibody) | 4.7 ng/mL | 1180 nM | Transcytosis in MDCK-hFcRn cells [1]: 4.7 ng/mL; Binding to MDCK-FcRn cells, MFI [6]: 183 MFI
Golimumab (antibody) | 6.8 ng/mL |  | 
Panitumumab (antibody) | 5 ng/mL | 780 nM | 
Reslizumab (antibody) | 3.3 ng/mL | 450 nM | Transcytosis in MDCK-hFcRn cells [1]: 3.3 ng/mL; Binding to MDCK-FcRn cells, MFI [6]: 93 MFI
2H7-Man5 (antibody) |  |  | Transcytosis (MDCK-hFcRN) [1]: 10.3 ng/mL; Binding to MDCK-hFcRN, MFI [4]: 207 MFI; Kd [5]: 230 nM

Further lines, with some results ahead:

Transcytosis [1] | Kd [3] | Substance | also measured
4.2 ng/mL |  | Pembrolizumab (antibody) | 
4.3 ng/mL | 250 nM | Nivolumab (antibody) | Kd [2]: 250 nM
3.6 ng/mL |  | Evolocumab (antibody) | 
8.2 ng/mL | 380 nM | Olaratumab (antibody) | 
7.3 ng/mL | 1300 nM | Avelumab (antibody) | 
4.3 ng/mL |  | Ofatumumab (antibody) | 
3.8 ng/mL | 480 nM | Palivizumab (antibody) | 
3.6 ng/mL |  | Emicizumab (bispecific antibody) | 
4.1 ng/mL |  | Vedolizumab (antibody) | 
